According to publication PMC6480404:
pKd: −log10 of the molar value.

Experiments:
[1] = biological target: Streptococcus pyogenes Cas9 (Streptococcus pyogenes) (UniProt Q99ZW2); experiment: cryo-EM structure
[2] = biological target: Streptococcus pyogenes Cas9 (Streptococcus pyogenes) (UniProt Q99ZW2); experiment: native gel or EMSA

stoichiometry N [1]: 1 | pKd [2]: 6.29
Substance: AcrIIA2 (natural protein)
